Test results as given in the supplement of paper PMC10567573.

B1: PRPH (parent)
chain: DEIEFLKKLHEEELRDLQVSVESQ
B2: CCDC6 (parent)
chain: TLFKKIQALQKEKETLAVNYEKEE

Variants of: B1
Assay: protein stability index of a GFP-peptide fusion (GPS, HEK-293T) (PSI 1-6); higher = more stable
Conditions: c terminus: a fixed tail appended
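Also: lentivirally expressed fusions sorted by FACS into six bins by GFP to DsRed ratio, PSI derived from sequencing read proportions per bin multiplied by bin number.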

Protein stability index of substitutions, site by site:
E22: V 4.18, R 4.3, Q 4.37, F 3.38, L 3.88, N 4.48, S 4.74, Y 3.75, H 4.5, G 4.3, W 3.29, T 4.72, M 4.27, I 3.29, K 4.69, P 5.25
S23: P 4.71, Y 4.71, W 3.45, T 4.95, Q 4.11, R 4.62, G 5.13, V 4.59, C 4.55, K 4.5, F 4.36, A 4.04, D 5.04, N 5.04, L 4.54, E 4.67, I 3.8, H 4.94, M 3.96
Q24: P 3.96, F 3.91, G 4.48, H 4.52, K 4.65, T 4.76, W 3.85, N 4.92, D 4.46, A 4.57, Y 3.64, S 4.26, M 4.64, C 3.37, R 4.22, E 4.57, V 4.23, I 4.35, L 4.66

Variants of: B2
Assay: as above
Conditions: c terminus: a fixed tail appended

Protein stability index: each site, then its substitutions
N19: E 3.64, Q 3.08, D 3.15, V 2.58, A 3.11, S 2.99
Q7: P 4.7, E 3.57, L 2.71
A8: N 3.75, W 2.75, D 3.51, L 3.4, T 3.49, P 4.25, C 3.15, Y 2.75
Y20: D 4.09, C 3.32
K22: C 3.46, H 3.15, M 3.08, P 3.5, D 3.88, S 3.29, V 2.94, I 2.74
Q10: D 4.41, W 2.65, E 4.41, S 3.41, R 2.64
K4: E 3.33, L 3.05, D 4.37, C 2.73, T 4.27, R 3.35
F3: Y 3.67, Q 4.78, M 3.41, N 4.59
A17: R 2.76, Y 2.46, G 3.1, L 2.51, F 2.49
E23: W 1.78, L 2.19, Q 2.63
V18: D 3.43, T 3.02, L 3.79, M 2.81, A 2.95
T1: Q 2.84, K 3.06, S 2.92, L 2.38, V 3.12
I6: Y 3.93, W 3.4, L 3.59, Q 4.28, R 4.79, M 4.32, A 4.59
E14: S 2.46, P 2.64
E21: G 3.01, W 1.92, N 2.92
K11: E 3.69, I 2.85
E24: F 2.04, T 2.82, Q 2.84, W 1.91
K13: C 2.28
K5: C 2.52, T 2.95, H 2.88, A 2.43, P 4.74, G 4.19, Y 2.15
T15: C 2.84, E 3.77, I 3.98, D 3.89, F 2.06, Q 2.98
L2: P 5.29, S 4.83, A 4.08, I 3.4
E12: I 2.27, Q 2.64, N 3.09, C 2.1, A 2.66
L9: R 4.25, W 3.5, Q 4.48, E 4.37, G 3.92
L16: H 3.91, Q 4.1, G 4.09, T 3.49, V 3.23, I 2.69, R 3.02
